From paper PMC7019173, “Stapled peptide targeting the CDK4/Cyclin D interface combined with Abemaciclib inhibits KRAS mutant lung cancer growth” (Theranostics, 2020)
Where two headings read alike, the source gives them in different places. Values belong to the molecule of their own block, whether it stands above or below them. Where a SMILES comes first, the peptide text is derived from it. Bridges are numbered along the chain shown (N, C = ends). [ ]: non-standard residue; d: D form. S5 = C=CCCC[C@](C)(N)C(=O)O; TP2‑Rho = not defined here

Tests used:
[1] = biological target: TP2-Rho-labelled CDK4 C helix peptide (unstapled) (human); test: other fluorescence titration; 200 nM TP2-Rho-labelled peptide titrated with GST-cyclins or GST; 96-well plates, 30 °C, 200 μL phosphate buffer saline; quadratic fit; average Kd of n = 3 to 5 experiments
[2] = circular dichroism; details: 50 mM phosphate buffer; pH 7; 20 °C; 100 uM
[3] = biological target: C4D peptide derived from the alpha 5 helix of cyclin D1 (Homo sapiens, UniProt P24385); test: Fluorescence titration of TP2-Rho-labelled C4D peptide with CDK4 C helix-derived peptides; format: binding; details: 200 nM TP2-Rho labelled C4D peptide, PBS, 30 °C, average of n = 3 to 5 ± SD
Method: TP2-Rho-labelled peptides: peptides were labelled on a unique cysteine residue with a five-fold molar excess of TP2-Rho-maleimide overnight, and then purified from free dye on NAP-5 columns (GE Healthcare), as described previously.
(§1) Fluorescence titration assays were performed in 96-well plates in a thermostated chamber (Clariostar spectrofluorimeter, BMG) at 30 °C in 200 μL phosphate buffer saline using 200 nM fluorescently-labelled peptides or proteins. The fluorescence emission intensity of TP2-Rho-labelled peptides was recorded at 614 nm following excitation at 510 nm. The fluorescence emission intensity of mant-ATP was measured at […]. Data analysis was performed using the GraFit Software (Erathicus Ltd) and curve fitting was performed using a quadratic equation, as described previously. Experiments were performed in triplicate, and Kd values represent the average calculated for n = 3 to 5 experiments, together with standard deviation.

[4] = test system: A549 cells; test: cells; format: cell-based, human; details: 48 hours, crystal violet, at least two independent experiments (n=4/experiment) ± SD, Grafit; read-out: IC50 A549 cell proliferation
Method: Non-small cell lung cancer A549, H358 and PC9 cell lines used in this study. Cell culture media, serum and antibiotics were purchased from Life Technologies. All cell lines were cultured in RPMI + Glutamax supplemented with 10% FCS, 100 units/mL penicillin (G sodium salt) and 100 µg/mL streptomycin at 37 °C in an atmosphere containing 5% CO2. […] Stock solutions of drugs were prepared in DMSO and freshly diluted in PBS to the desired concentration prior to use, then added onto unsynchronized cells cultured to subconfluency (60-70%), which were then further incubated for 24, 48 or 72 h. Cell proliferation was determined by crystal violet assay following treatment with drugs. Cells were washed with PBS, fixed with 3.7% formaldehyde for 10 min and then incubated with 0.1% crystal violet dye for 30 min. After rinsing, crystals were dissolved in 10% acetic acid and viability was determined by measuring absorbance at 595 nm.

[5] = design: species or system mice; details: mouse, in vivo, iv
[6] = design: species or system mice; details: mouse, in vivo
Method: Five weeks after the inoculation of H358-Luc cells, when bioluminescent orthotopic tumours were detected, nude mice were randomly divided into 6 groups. Mice were treated with vehicle (control, n = 14), Abemaciclib (n = 10), or P2-short administered intravenously (n = 10) or intrapulmonary (n = 10), or treated with a combination of Abemaciclib and P2-short (intravenous administration of P2-short, n = 10; intrapulmonary administration of P2-short, n = 10). Mice were daily orally treated for three weeks with 10 mg/kg Abemaciclib. P2-short was either administered via the tail vein three times a week for three weeks under anesthesia (isoflurane/air 4% for induction and 1.5% thereafter) with 200 μL at 0.9 mg/kg, or administered intrapulmonary two times a week for three weeks under anesthesia with 50 μL at 0.45 mg/kg. Intrapulmonary administration of P2-short was performed using a catheter connected to a FMJ-250-high-pressure syringe (Penn-Centur, Inc) and introduced into the trachea of the animals using a dedicated laryngoscope. Mice were observed and weighed three times a week. Tumour growth was followed by in vivo bioluminescence imaging (IVIS Kinetic). After 3 weeks, mice were sacrificed, and blood samples were collected by cardiac puncture for biochemistry analysis ([…]). Lungs were collected for immunohistochemistry analyses. […]

[7] = biological target: T1, CDK4/cyclin D1 (Homo sapiens, UniProt P11802); test: Fluorescence titration of mant-ATP with CDK4/cyclin D1 with or without P2short; format: binding; details: 200 nM mant-ATP
T1 construct: GST (N); made in house; host or cells: E. coli
Method: Recombinant GST-CDK4 and GST-cyclin D1 were expressed in E. coli by IPTG induction and purified by FPLC chromatography as described previously.
as §1

[8] = Circular dichroism, determination of alpha helical content; format: physicochemical
Method: CD experiments were carried out using a Jasco J815 spectropolarimeter. Spectra were recorded with 100 μM of peptides dissolved in phosphate buffer 50 mM, pH 7, using a 1 mm pathlength CD cuvette at 20 °C, over a wavelength range of 190-260 nm. Continuous scanning mode was used, with a response of 1.0 s with 0.1 nm steps and a bandwidth of 2 nm. The signal to noise ratio was improved by acquiring each spectrum over an average of two scans. Baseline was corrected by subtracting the background from the sample spectrum.
Alpha helical content was determined using the following equation: % Helix = ([θ])obs * 100)/(-39500 * (1-2.57/n), where ([θ])obs is the mean residue ellipticity at 222 nm and n the number of peptide bonds.

[9] = biological target: GST-cyclin A (UniProt P20248 1-432); test: other fluorescence titration; 200 nM TP2-Rho-labelled peptide titrated with GST-cyclins or GST; 96-well plates, 30 °C, 200 μL phosphate buffer saline; quadratic fit; average Kd of n = 3 to 5 experiments; details: both partners purified
[10] = biological target: T2, GST-cyclin Y (UniProt Q8ND76 1-341); test: as above; details: both partners purified
T2 construct: cyclin Y; source: E. coli BL21, purified (GSTrap HP, desalting column)

[11] = biological target: T3, GST-cyclin D1 (UniProt P24385 1-295); test: as above; details: both partners purified
T3 construct: cyclin D1; also called recombinant cyclin; source: E. coli, IPTG induction, purified by FPLC chromatography

[12] = biological target: GST-cyclin E (UniProt P24864 1-410); test: as above; details: both partners purified

T1 sequence (P11802 whole entry): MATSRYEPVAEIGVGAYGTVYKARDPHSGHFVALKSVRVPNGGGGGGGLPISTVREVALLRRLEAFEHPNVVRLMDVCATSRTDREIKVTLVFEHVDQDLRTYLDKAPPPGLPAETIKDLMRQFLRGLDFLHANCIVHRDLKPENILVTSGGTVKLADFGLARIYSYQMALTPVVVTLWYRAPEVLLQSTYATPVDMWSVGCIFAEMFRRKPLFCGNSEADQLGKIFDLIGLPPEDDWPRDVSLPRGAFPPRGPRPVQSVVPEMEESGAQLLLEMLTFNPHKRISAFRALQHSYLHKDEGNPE
T1 sequence (P24385 whole entry partner): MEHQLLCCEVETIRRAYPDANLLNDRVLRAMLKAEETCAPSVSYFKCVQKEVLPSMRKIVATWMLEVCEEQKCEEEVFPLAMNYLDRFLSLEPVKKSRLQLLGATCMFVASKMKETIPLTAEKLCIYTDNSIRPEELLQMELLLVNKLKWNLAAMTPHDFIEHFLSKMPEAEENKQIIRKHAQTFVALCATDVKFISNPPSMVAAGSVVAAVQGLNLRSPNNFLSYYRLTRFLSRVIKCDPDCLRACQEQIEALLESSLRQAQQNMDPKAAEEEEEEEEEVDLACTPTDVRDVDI
T2 sequence (Q8ND76 whole entry): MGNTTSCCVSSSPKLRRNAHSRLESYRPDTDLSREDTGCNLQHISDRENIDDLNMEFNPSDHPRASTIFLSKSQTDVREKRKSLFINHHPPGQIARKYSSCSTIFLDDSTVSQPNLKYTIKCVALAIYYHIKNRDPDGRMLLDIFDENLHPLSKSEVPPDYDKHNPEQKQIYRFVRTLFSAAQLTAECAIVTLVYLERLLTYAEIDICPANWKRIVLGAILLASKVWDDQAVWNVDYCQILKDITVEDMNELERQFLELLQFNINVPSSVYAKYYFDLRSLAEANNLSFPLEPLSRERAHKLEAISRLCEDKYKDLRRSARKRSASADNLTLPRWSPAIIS
T3 sequence (P24385 whole entry): as the sequence (P24385 whole entry partner) above
Sequence of GST-cyclin D1 (from UniProt P24385 1-295) (natural protein) (P24385 whole entry): as the sequence (P24385 whole entry partner) above

Molecule: GST-cyclin D1 (from UniProt P24385 1-295) (natural protein)
Kd [1]: 43 nM

Molecule: CC[C@H](C)[C@H](NC(=O)[C@@H]1CCCN1C(=O)[C@H](CC(C)C)NC(=O)[C@H](CS)NC(C)=O)C(=O)N[C@@H](CO)C(=O)N[C@H](C(=O)N[C@H](C(=O)N[C@@H](CCCNC(=N)N)C(=O)N[C@@]1(C)CCCC=CCCC[C@@](C)(C(=O)N[C@@H](CCCNC(=N)N)C(=O)N[C@@H](CCCNC(=N)N)C(=O)N[C@@H](CC(C)C)C(N)=O)NC(=O)[C@H](CC(C)C)NC(=O)[C@H](C)NC(=O)[C@H](C(C)C)NC1=O)C(C)C)[C@@H](C)O [P2short] (Ac-CLPISTVR[S5]VAL[S5]RRL-NH2; staple 9-13)
helicity [2]: 77% | Kd [3]: 56 ± 19 nM

Molecule: CC[C@H](C)[C@H](NC(=O)[C@@H]1CCCN1C(=O)[C@H](CC(C)C)NC(=O)[C@H](C)N)C(=O)N[C@@H](CO)C(=O)N[C@H](C(=O)N[C@H](C(=O)N[C@@H](CCCNC(=N)N)C(=O)N[C@@]1(C)CCCC=CCCC[C@@](C)(C(=O)N[C@@H](CCCNC(=N)N)C(=O)N[C@@H](CCCNC(=N)N)C(=O)N[C@@H](CC(C)C)C(N)=O)NC(=O)[C@H](CC(C)C)NC(=O)[C@H](C)NC(=O)[C@H](C(C)C)NC1=O)C(C)C)[C@@H](C)O [P2shortA] (H-ALPISTVR[S5]VAL[S5]RRL-NH2; staple 9-13)
IC50 [4]: 10800 ± 260 nM | helicity [2]: 74% | blood distribution half-life [5]: 0.4 h | blood elimination half-life [5]: 39 h | lung damage by HE staining [6]: did not reveal any lung damage

Molecule: mant-ATP
Kd ([7]; P2short 2-fold excess, read-out: Kd of mant-ATP for CDK4/cyclin D1 in the presence of P2short): 5 ± 2 nM | Kd ([7]; no peptide, read-out: Kd of mant-ATP for CDK4/cyclin D1 complex alone): 27 ± 13 nM

Molecule: CC[C@H](C)[C@H](NC(=O)[C@@H]1CCCN1C(=O)[C@H](CC(C)C)NC(=O)CNC(C)=O)C(=O)N[C@@]1(C)CCCC=CCCC[C@@](C)(C(=O)N[C@H](C(=O)N[C@@H](C)C(=O)N[C@@H](CC(C)C)C(=O)N[C@@]2(C)CCCC=CCCC[C@@](C)(C(=O)N[C@@H](C)C(=O)N[C@@H](Cc3ccccc3)C(=O)N[C@@H](CCC(=O)O)C(N)=O)NC(=O)[C@H](CC(C)C)NC(=O)[C@H](CCCNC(=N)N)NC(=O)[C@H](CCCNC(=N)N)NC2=O)C(C)C)NC(=O)[C@H](CCCNC(=N)N)NC(=O)[C@H](C(C)C)NC(=O)[C@H]([C@@H](C)O)NC1=O [P4] (Ac-GLPI[S5]TVR[S5]VAL[S5]RRL[S5]AFE-NH2; staple 5-9, 13-17)
helicity [2]: 26% | Kd [3]: 109 ± 29 nM

Molecule: CC(=O)N[C@@H](CS)C(=O)N[C@@H](C)C(=O)N1CCC[C@H]1C(=O)N[C@@H](C)C(=O)N[C@@H](CO)C(=O)N[C@H](C(=O)N[C@@H](C)C(=O)N[C@@H](C)C(=O)N[C@@]1(C)CCCC=CCCC[C@@](C)(C(=O)N[C@@H](C)C(=O)N[C@@H](CCCNC(=N)N)C(=O)N[C@@H](CC(C)C)C(N)=O)NC(=O)[C@H](CC(C)C)NC(=O)[C@H](C)NC(=O)[C@H](CCCCN)NC1=O)[C@@H](C)O (Ac-CAPASTAA[S5]KAL[S5]ARL-NH2; staple 9-13)
helicity [2]: 34%

Molecule: CC[C@H](C)[C@H](NC(=O)[C@@H]1CCCN1C(=O)[C@H](CC(C)C)NC(C)=O)C(=O)N[C@@H](CO)C(=O)N[C@H](C(=O)N[C@H](C(=O)N[C@@H](CCCNC(=N)N)C(=O)N[C@@H](CCC(=O)O)C(=O)N[C@H](C(=O)N[C@@H](C)C(=O)N[C@@H](CC(C)C)C(=O)N[C@@H](CC(C)C)C(=O)N[C@@H](CCCNC(=N)N)C(=O)N[C@@H](CCCNC(=N)N)C(=O)N[C@@H](CC(C)C)C(N)=O)C(C)C)C(C)C)[C@@H](C)O [CDK4 C peptide short] (Ac-LPISTVREVALLRRL-NH2)
helicity [2]: 14% | % helix (alpha helical content) ([8]; CD, 100 μM peptide in phosphate buffer 50 mM, pH 7, 20 °C, from mean residue ellipticity at 222 nm): 14% | conformation in solution (CD) ([8]; phosphate buffer): disordered in solution

Molecule: Ac-C(TP2‑Rho)GLPISTVR[S5]VAL[S5]RRL-NH2 (staple 10-14; reading uncertain) [TP2-Rho-labelled P2short stapled peptide]
Kd [9]: 25 nM | Kd [10]: 47 nM | Kd [11]: 12 nM | Kd [12]: 10 nM

The next lines start with results.

Kd [3]: 245 ± 84 nM
Molecule: CC[C@H](C)[C@H](NC(=O)[C@@H]1CCCN1C(=O)[C@H](CC(C)C)NC(=O)CNC(C)=O)C(=O)N[C@@H](CO)C(=O)N[C@H](C(=O)N[C@H](C(=O)N[C@@H](CCCNC(=N)N)C(=O)N[C@@]1(C)CCCC=CCCC[C@@](C)(C(=O)N[C@@H](CCCNC(=N)N)C(=O)N[C@@H](CCCNC(=N)N)C(=O)N[C@@H](CC(C)C)C(=O)N[C@@H](CCC(=O)O)C(=O)N[C@@H](C)C(=O)N[C@@H](Cc2ccccc2)C(=O)N[C@@H](CCC(=O)O)C(N)=O)NC(=O)[C@H](CC(C)C)NC(=O)[C@H](C)NC(=O)[C@H](C(C)C)NC1=O)C(C)C)[C@@H](C)O [P2] (Ac-GLPISTVR[S5]VAL[S5]RRLEAFE-NH2; staple 9-13)
helicity [2]: 55%

Kd [3]: 140 ± 77 nM
Molecule: CC[C@H](C)[C@H](NC(=O)[C@@H]1CCCN1C(=O)[C@H](CC(C)C)NC(=O)CNC(C)=O)C(=O)N[C@@]1(C)CCCC=CCCC[C@@](C)(C(=O)N[C@H](C(=O)N[C@@H](C)C(=O)N[C@@H](CC(C)C)C(=O)N[C@@H](CC(C)C)C(=O)N[C@@H](CCCNC(=N)N)C(=O)N[C@@H](CCCNC(=N)N)C(=O)N[C@@H](CC(C)C)C(=O)N[C@@H](CCC(=O)O)C(=O)N[C@@H](C)C(=O)N[C@@H](Cc2ccccc2)C(=O)N[C@@H](CCC(=O)O)C(N)=O)C(C)C)NC(=O)[C@H](CCCNC(=N)N)NC(=O)[C@H](C(C)C)NC(=O)[C@H]([C@@H](C)O)NC1=O [P1] (Ac-GLPI[S5]TVR[S5]VALLRRLEAFE-NH2; staple 5-9)
helicity [2]: 16%
